The results in this text go back to paper PMC6667456.

The target of this data set is T1, TofR-His (also written His-TofR) (Burkholderia glumae BGR1?) (UniProt A1KWS3).
T1 sequence: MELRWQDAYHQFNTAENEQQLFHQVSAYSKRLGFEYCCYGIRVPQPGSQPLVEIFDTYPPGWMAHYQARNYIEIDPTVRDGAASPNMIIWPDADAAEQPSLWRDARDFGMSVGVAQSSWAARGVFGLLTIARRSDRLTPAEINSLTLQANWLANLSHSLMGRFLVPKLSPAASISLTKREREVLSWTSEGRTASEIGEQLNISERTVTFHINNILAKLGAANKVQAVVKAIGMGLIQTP
Description: EMSA. Conditions: EMSA: 0.4 nM biotin-DNA, 10 mM Tris-HCl pH 7.5, 10 mM NaCl, 100 mM NaCl (both sic), 0.5 mM EDTA, 1 mM DTT, 5% glycerol, 50 ng/uL poly(dI-dC), 15 min ….

Take “TGGTGTCCTCCAGATATGGGCTGCAGTCGATATGGGCTGCAGTATCGGATCTCGCTTATCATTACTCAAACGAAATTTTCTTGAGTTGAACATGAAAAATATTCAGGTTCACGCTGCTACTGAACGCCGCCATGAATCGCTCGCCGCTTGAGCTGCGCCATCTGCAGACCCTCACGGCGCT (double strand) [metE1 putative promoter region, 181 bp]”: the binding entry is “binds”.
